According to article PMC7793260:

How the values were obtained:
[1] = biological target: mKO-^MalFNTPBP2 (E. coli); experiment: FRET or BRET; three-plasmid FRET in LMC500 cells; third plasmid: empty pSG4K5 vector
[2] = biological target: mKO-^MalFNTPBP2 (E. coli); experiment: FRET or BRET; three-plasmid FRET in LMC500 cells; third plasmid expresses non-fused MreCD
[3] = biological target: mKO-^MalFNTPBP2 (E. coli); experiment: FRET or BRET; two-plasmid spectral FRET in E. coli LMC500 cells; mCherry fusion as acceptor, mKO fusion as donor; Gb4 medium, steady state at 28 C, 15 uM IPTG for two mass doublings, FAGA-fixed; acceptor FRET efficiency (EfA) by spectral unmixing
[4] = biological target: mKO-^MalFNTPBP2 (E. coli); experiment: FRET or BRET; three-plasmid FRET in LMC500 cells; third plasmid expresses non-fused MreC
[5] = biological target: mKO-^MalFNTPBP2 (E. coli); experiment: FRET or BRET; as the two-plasmid FRET, cells treated with mecillinam (2 mg/L) for two mass doublings
[6] = biological target: mKO-^MalFNTPBP2 (E. coli); experiment: FRET or BRET; two-plasmid FRET in LMC500 cells; mCherry-MreC and non-fused MreD co-expressed from one plasmid (mCh-MreCD), mKO fusion as donor

| EfA (acceptor FRET efficiency) [1] [%] | EfA (acceptor FRET efficiency) [2] [%] | EfA (acceptor FRET efficiency) [3] [%] | EfA (acceptor FRET efficiency) [4] [%] | EfA (acceptor FRET efficiency) [5] [%] | EfA (acceptor FRET efficiency) [6] [%] | Substance |
| --- | --- | --- | --- | --- | --- | --- |
| 9.4 | 8.7 | 10.5 | 9.8 |  |  | PBP2 (wild type), fused to mKO or to mCherry (from UniProt P0AD65 1-633) (enzyme) |
| 7.6 | 5.5 | 11.8 | 4.2 | 6.2 |  | RodA (wild type), fused to mCherry or to mKO (from UniProt P0ABG7 1-370) (enzyme) |
|  |  | 5.4 |  |  | 5.4 | mCh-MreC (from UniProt P16926 1-367) (natural protein) |
